{"source": "patent US20220143153A1", "about": "“COMPOSITIONS AND METHODS FOR TREATING ACNE” (priority 2019, published 2022)", "molecules": {"B1": {"name": "RNase I: RNase I (Promega), enzyme that catalyzes the hydrolysis of RNA; used to digest live bacteria (protein, UniProt P21338 24-268, looked up)", "Ribonuclease I": "LALQAKQYGDFDRYVLALSWQTGFCQSQHDRNRNERDECRLQTETTNKADFLTVHGLWPGLPKSVAARGVDERRWMRFGCATRPIPNLPEARASRMCSSPETGLSLETAAKLSEVMPGAGGRSCLERYEYAKHGACFGFDPDAYFGTMVRLNQEIKESEAGKFLADNYGKTVSRRDFDAAFAKSWGKENVKAVKLTCQGNPAYLTEIQISIKADAINAPLSANSFLPQPHPGNCGKTFVIDKAGY"}}, "tested_on": "PBMCs", "assay": "Cytokine secretion from PBMCs stimulated with nuclease-treated live C. acnes (ELISA)", "assay_type": "cell-based, human", "details": "live C. acnes digested with nuclease at 37° C. for 1 hour, PBMCs stimulated 24 h", "description": "FIGS. 3A-3D: PBMCs were stimulated with untreated, heat-killed (HK), Rnase I, or Dnase I treated live CA(HL5PA1), CH (HL110PA4), LPS, or 19 kD (TLR1/2L) for 24 h. Cytokine secretions were measured by ELISA.\nCells purification and culture. Whole blood was obtained from healthy donors who provided written informed consent (UCLA Institutional Review Board). PBMCs were isolated by Ficoll-Paque (Amersham Bioscience) density gradient centrifugation and cultured in RPMI 1640 (Gibco) supplemented with 10% fetal bovine serum (FBS) (Seradigm) at a density of 2.5×10^6/mL in a 24-well flat bottomed plate.\nBacterial treatment. Live bacteria were heat-killed at 95° C. for 10 minutes and cooled on ice before addition of bacteria to cell culture. Live bacteria were digested using RNase I (Promega) or DNase I (Invitrogen) and incubated at 37° C. for 1 hour. Nucleases were inactivated with 0.1% SDS.\nCytokine Quantification. Cell culture supernatants were harvested at 24 hours unless otherwise noted. Cytokines measured by sandwich ELISA using antibody pairs were as follows: IL-18, IL-1β, IFN-β (R&D Duoset), IFN-γ (BD), IL-6, IL-10, TNF-α (Invitrogen).", "data": [{"molecule": "B1", "values": [{"measurement": "IFN-γ secretion from PBMCs", "result": "eliminated"}, {"measurement": "IL-6 secretion from PBMCs", "result": "eliminated"}, {"measurement": "IL-10 secretion from PBMCs", "result": "eliminated"}, {"measurement": "TNF-α secretion from PBMCs", "result": "eliminated"}, {"measurement": "IFN-γ secretion from PBMCs", "setting": "listed as RNase", "result": "abrogated"}]}]}
